Patent US7666835B2 (Imperial Innovations Limited, priority 2001, dated 2010)

Assays:
[1] = ICV injection, food intake in 24-h fasted rats (studies 1a, 2a); assay type: in vivo, rat; settings: study 1a; 3 nmol ICV; 24-h fasted rats; vs saline
Description: (§1) Animals had permanent stainless steel guide cannulas (Plastics One, Roanoke, Va.) stereotactically implanted ICV or iPVN.

[2] = iPVN injection, food intake in 24-h fasted rats (studies 1b, 2b); assay type: in vivo, rat; settings: study 1b; iPVN; OXM, GLP-1 (3 nmol [sic]), exendin-4 0.03 nmol, glicentin, glucagon 1 nmol, SP-1 3 nmol; fasted rats
Protocol: as §1
Therefore, exendin-4 was injected iPVN at a dose of 0.03 nmol.

B1: glicentin (peptide, UniProt P01275 21-89, looked up)
Glicentin: RSLQDTEEKSRSFSASQADPLSDPDQMNEDKRHSQGTFTSDYSKYLDSRRAQDFVQWLMNTKRNRNNIA
modifications: Glicentin
notes: proglucagon-derived peptide purchased from Peninsula Laboratories
[1]
  refeeding (food intake) after ICV injection: failed to affect food intake at any time point
[2]
  refeeding (food intake) after iPVN injection: failed to affect food intake at any time point
